# Measured values taken from patent publication US20260007748A1 (KELONIA THERAPEUTICS, published 2026).
# T1: B cell maturation antigen (BCMA) (human, UniProt Q02223 1-184)
# T1 construct: BCMA as carried by RPMI-8226 (high BCMA) and Daudi (low BCMA) tumor cells; also called TNFRSF17; tumor necrosis factor receptor superfamily member 17
# T1 sequence: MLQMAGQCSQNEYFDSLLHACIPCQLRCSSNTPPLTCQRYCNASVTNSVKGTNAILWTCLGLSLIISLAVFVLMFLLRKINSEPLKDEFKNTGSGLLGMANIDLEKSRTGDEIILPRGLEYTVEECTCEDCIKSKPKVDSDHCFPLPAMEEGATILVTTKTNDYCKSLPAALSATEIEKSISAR
# Molecular target: T1, B cell maturation antigen (BCMA)
# Assay: co-culture of transduced PBMCs with RPMI-8226 (high BCMA) or Daudi (low BCMA) cells; recognition read by IFNγ
# Experimental: PBMCs transduced with recombinant lentiviral particles comprising a viral envelope expressing a mutated VSIV-G and a non-viral membrane-bound tropism polypeptide that binds CD3 and a lentiviral vector encoding an MNDU3 promoter operably linked to a polynucleotide encoding a CD8α signal peptide and an anti-BCMA CAR and a WPRE operably linked to the 3′ prime end of the polynucleotide encoding the anti-BCMA CAR (18 anti-BCMA CARs were evaluated) were co-cultured with Daudi cells (low BCMA expression) or RPMI-8226 cells (high BCMA expression) for 24 hours. After 24 hours, IFNγ levels in co-culture supernatant were measured and plotted as a function of % anti-BCMA CAR positive cells in the co-culture.
# 5×10⁴ PBMCs transduced with recombinant lentiviruses LV 1 to LV 19 were co-cultured with 5×10⁴ high BCMA-expressing tumor cells (RPMI-8226) or 5×10⁴ low BCMA-expressing tumor cells (Daudi) for 24 hours. Anti-BCMA CAR activity was assessed by harvesting co-culture supernatants and measuring IFNγ levels using a Meso Scale Discovery (MSD®) assay. The percentage of anti-BCMA CAR positive cells was plotted against IFNγ levels produced in co-culture. FIG. 2D.
binder,measurement,value
"anti-BCMA CAR of recombinant lentivirus LV 9 (SEQ ID NO: 273) (other, Chimeric antigen receptor on transduced human PBMCs: anti-BCMA VHH, CD8α hinge and TM, CD137 costim, CD3ζ; also called LV 9.1 to LV 9.9) EVQLLESGGGLVQPGGSLRLSCAASGFTFGSEAMSWVRQAPGKERELVSAISGSGEVTYYADSVKGRFTISRDNSKNTLYLQMNSLRAEDTAVYYCQRLVEAKRHWGQGTQVTVSSTTTPAPRPPTPAPTIASQPLSLRPEACRPAAGGAVHTRGLDFACDIYIWAPLAGTCGVLLLSLVITLYCKRGRKKLLYIFKQPFMRPVQTTQEEDGCSCRFPEEEEGGCELRVKFSRSADAPAYQQGQNQLYNELNLGRREEYDVLDKRRGRDPEMGGKPRRKNPQEGLYNELQKDKMAEAYSEIGMKGERRRGKGHDGLYQGLSTATKDTYDALHMQALPPR",binding result,binds
